From the supplement of paper PMC12042874
± gives the uncertainty stated by the source.

Assay: amyloid nucleation score (Sup35N fusion, yeast selection) (log enrichment); library NNK2; higher = more nucleation; inactive = no reads after selection
Outline: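 Using DiMSum, nucleation scores were taken as the log enrichment of output over input reads, centred on the mode score of non-aggregating sequences. The input and output reads came from Illumina sequencing of plasmid inserts, with sequences under 100 input reads excluded. The yeast were psi-negative, expressed Sup35N fused to peptides of 20 random codons, were induced with 100 μM copper sulfate for 24 hours, and were grown 7 days at 30°C on medium lacking adenine and uracil.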

Row | Substance | amyloid nucleation score
1 | TNLMAFLRPFAVVTRND | -0.355 ± 0.76
2 | ADGVSSWLTVLTFSHWRVK | 1 ± 0.31
3 | NFAVLYYIFVHIWLQCSNSE | -0.969 ± 0.41
4 | LVDKVYNDAILLVWDNESRT | -0.464 ± 0.64
5 | EFIMTCAQVPRTFDVHSNRS | 6.479 ± 0.054
6 | LHFTYCGSVMNVANDMVFVQ | 0.106 ± 1
7 | QSLHTSANSLLNWNFMSLLT | 0.871 ± 0.29
8 | MRLFFLVLICAYVVESGFQC | 0.72 ± 0.25
9 | RLCVILCQVMTWRMAVSILE | 0.228 ± 0.56
10 | ILWGERRIDSRSWKIVARYF | -0.664 ± 1.1
11 | CCWLAMRVRFTMASKLPNFE | 3.34 ± 0.083
12 | GNTHHRDGILESQPFFVTEA | 0.465 ± 0.29
13 | IYTRFQLFR | 4.5 ± 0.069
14 | YSLCTTPMRAWVSYVFDVR | -1.04 ± 0.64
15 | SGSIVRGLCVVFSCVFKGSL | -0.874 ± 0.56
16 | SCENTSSQELWYTCSIDLKL | 0.472 ± 0.66
17 | KGIYIFRHLCGMDVNMGPMD | -0.764 ± 0.64
18 | CLFYRCCMHDPRSLLEKGRP | 5.835 ± 0.037
19 | GADGISCFGISDKLGYDKFL | -0.1 ± 1
20 | HCPVSVVTRHGLTVNDVRHY | -0.062 ± 0.46
21 | GSNTSDHDNLD | -0.238 ± 0.5
22 | ESDMCFVWSIELVGLMFKLI | -0.979 ± 0.24
23 | FYPSWNLYRVRGQPYLNRVR | -0.352 ± 1.1
24 | THWMKRRVVA | 1.33 ± 0.17
25 | PEKTFICCLAVRDMQNRGVS | -0.032 ± 1.1
26 | MWKQWSSRTPRSVVYRGLMV | 0.755 ± 0.21

Row | Substance | amyloid nucleation score
27 | SLSRNGTVFARFRVSTSRCL | 4.23 ± 0.057
28 | LSLFISGDYWVIQGNIY | 3.65 ± 0.059
29 | RLNHGVSRSYDPPRRWAGSR | 0.07 ± 0.61
30 | DIVMCFLGRHHQSTEAGLSM | 4.49 ± 0.056
31 | RCRISVWVVGSCLSRMYG | 4.29 ± 0.056
32 | LGQSCTYQCQQLCSLSHNRV | -0.214 ± 1.1
33 | MFNLSLNEFKPGLNRDCVQ | -0.258 ± 0.56
34 | SGPATLLPTLGYNGVIVFGN | -0.444 ± 0.78
35 | DGPIPLLSGMGHGGRYLWCV | 1.01 ± 0.18
36 | RTPCVHMPHAVSLGLVALLL | -0.318 ± 0.76
37 | KALYYY | inactive
38 | GMNAAGEVWVRGWTSGCMVY | 0.225 ± 0.5
39 | VTVNFSANARLCRLGLLNVC | -0.222 ± 0.34
40 | FMLFRRGKNQRFRRLTDYKN | -2.44 ± 1.1
41 | FCREWDRSRQKG | 0.508 ± 0.25
42 | FWYLLSLGQIIRSVNLGNWI | -0.78 ± 1.1
43 | CRKYKLRHRADDCSMYCTRL | 3.33 ± 0.14
44 | TAIYENYCMSVMWMLVVGRI | -0.277 ± 0.3
45 | AHYIASVDWIFKM | -1.32 ± 0.41
46 | VKPWFS | -0.145 ± 1.1
47 | PSKPC | -1.72 ± 0.75
48 | HNKVLGSSHHKLRQIPTCMC | 0.484 ± 0.8
49 | NADPNCLSK | 0.508 ± 0.57
50 | MHDYFLVQ | -0.487 ± 0.42
51 | YLKMALVMIMYVITYRSTVG | 1.65 ± 0.31
52 | WVMAISLADFVLYLNWSLYR | inactive

Row | Substance | amyloid nucleation score
53 | YLRTFAKYWNPNARQLSIMR | inactive
54 | VILMDMYHAGNSAMCLACGN | -0.119 ± 0.49
55 | VWSRRYTLVGFTSVVPSNDN | 0.3 ± 0.37
56 | GVYKVGMVPWFIQFSDVGGR | 5.73 ± 0.068
57 | HYMSAHGRRRLKPQVFYT | inactive
58 | FTMGVRRLCYSWLRARFVKC | -0.368 ± 1
59 | CLWHWSNGRNVGKIYLFAVT | -0.377 ± 0.24
60 | SLSWQNPCLMFMDNMADMIS | -0.006 ± 0.54
61 | KFGNSCR | -0.428 ± 0.42
62 | SRFLCVKTTVVALI | 4.66 ± 0.047
63 | FYTYCSLGWTEAAGAVFLES | -1.34 ± 0.75
64 | SRIFVRYTLAKLVDFSCPES | 0.61 ± 0.46
65 | KNDISHS | inactive
66 | CLNRLFHTPGDGDNYCRAIL | 0.34 ± 0.5
67 | FTNLVTLYVYCYSFWYGILN | -0.232 ± 1.1
68 | SMSMYTPNFFDFVVVRPTIY | inactive
69 | NFSVNCLYNWARYACFLKGM | 1.77 ± 0.12
70 | FASYRVY | 0.305 ± 1
71 | FVCLVLRLCTMGSRASGLKK | 0.255 ± 1.1
72 | EEWYHADVSCVHRKIPNATR | 0.644 ± 0.81
73 | YKETFGIA | -1.36 ± 0.49
74 | ICGVKRKKNVILSYFISMEY | inactive
75 | TFRIERSVGWYCNRASYSCK | 1.02 ± 0.21
76 | VYRYFNLQVISFWMMARHTM | -1.32 ± 1.1
77 | RCYPS | 0.277 ± 0.17
78 | DYILLARYSRNVHCS | -0.343 ± 0.37

Row | Substance | amyloid nucleation score
79 | TTRRC | -0.43 ± 0.32
80 | CKSLLVKC | inactive
81 | ECSRSINYLRLVLNLE | 0.708 ± 0.34
82 | LFMNRHVYVLQVVEMYKRQT | -1.07 ± 1.1
83 | HGLVGESVRSYQTQRQVTMA | 0.544 ± 0.4
84 | APSGRHFFTFTPC | 0.605 ± 0.36
85 | GSYFGHNIHLGAVWPIIGYP | 0.117 ± 0.3
86 | RSILSCEGPDSLLEAFNEQI | 0.625 ± 0.64
87 | LYQVRGTY | 0.353 ± 0.22
88 | LCYSFYPQSVKSFEFPNYFY | inactive
89 | EFSFHSWQLVTSCQEECCLD | inactive
90 | VGGWSLYSSPVLLRIWFKRH | 0.087 ± 0.79
91 | TLFLSMLLMASSCYMTCCGD | -0.119 ± 0.55
92 | VYQIRKV | -0.523 ± 0.33
93 | CWVAYERSHTFRPKNQFFMH | 1.02 ± 0.53
94 | CVYWWASGE | inactive
95 | TQFISFRYYHNVDEIHYVVN | inactive
96 | LGPEYTWQI | 0.548 ± 0.42
97 | MPLLRVVMTLRHKSLFKAEM | -0.272 ± 0.44
98 | CCFCFDNLIIPRDCYANSDN | 6.734 ± 0.03
99 | TFHRS | 1.05 ± 0.29
100 | GMVCVP | 0.876 ± 0.25
101 | VIYSELGYHREPVLCG | -0.972 ± 0.49
102 | GSPGIETGIAAEEWNGGW | 0.865 ± 0.5
103 | ELWLYFFL | -1.07 ± 0.34
104 | EVWYTGYVCLWMYIAWINID | inactive

Row | Substance | amyloid nucleation score
105 | IRAKFI | 0.455 ± 0.39
106 | RLSLGKGAVTDT | 0.837 ± 0.19
107 | IMCEGSTPDFIIYSCMLLVY | -1.41 ± 0.42
108 | FFYQVWGNN | 2.26 ± 0.11
109 | TVHCGMQWWLVARRPRNEAQ | 1.25 ± 0.38
110 | RDVLTDNQNAIRLLRGVSAY | 0.298 ± 0.19
111 | NHSMRPNRTVSGMLTSIYYR | -0.533 ± 0.55
112 | DHFGGCYMSATRSWHDFKMG | inactive
113 | ATVIEYKYVRGMYLLMTYTY | -0.536 ± 1
114 | VSLYLYPVGMGMSE | 1 ± 0.68
115 | LDTHRPPYQDRVWLTRSANT | 1.79 ± 0.24
116 | VTRKVLGYCRVW | 0.472 ± 0.8
117 | LLPYSSHN | 4.901 ± 0.039
118 | DIVIDRNMSLWDPFNIVPFE | -0.27 ± 0.79
119 | KVALVHAGLKNFWRSSLWRL | 1.11 ± 0.41
120 | TLGSLLLLMSWVEGLQKHLI | 0.888 ± 0.48
121 | SYVVVAPLCQCTTVSGRRGI | 1.04 ± 0.59
122 | QGRRISKLC | -1.39 ± 1
123 | LYRNSMRRDR | -0.669 ± 0.35
124 | NREIMMD | -0.184 ± 1.1
125 | LCWCWKSWHNARRWTSWRMF | 0.13 ± 0.56
126 | GMYGLCF | -0.524 ± 0.64
